Data from US20090104178A1.

Columns and labels:
Assay in all cases: SPR (BIAcore X), E12 thiol-coupled to the chip, chemokine injected
mCCL27 (mouse) = mCCL27 (mouse) (UniProt Q9Z1X0)
mCXCL11 (mouse) = mCXCL11 (mouse) (UniProt Q9JHH5)
mCCL21 (mouse) = mCCL21 (mouse) (UniProt P84444)
mCXCL13 (mouse) = mCXCL13 (mouse) (UniProt O55038)
mCCL25 (mouse) = mCCL25 (mouse) (UniProt O35903)
mCXCL14 (mouse) = mCXCL14 (mouse) (UniProt Q9WUQ5)
mCXCL14 (mouse), sequence (Q9WUQ5 23-99 limits assumed): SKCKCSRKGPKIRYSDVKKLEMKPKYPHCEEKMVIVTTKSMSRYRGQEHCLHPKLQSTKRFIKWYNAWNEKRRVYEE

mCCL27 (mouse), sequence (Q9Z1X0 26-120 limits assumed): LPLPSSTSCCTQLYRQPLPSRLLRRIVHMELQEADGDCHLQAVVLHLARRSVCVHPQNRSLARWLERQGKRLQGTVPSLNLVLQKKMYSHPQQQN
mCCL25 (mouse), sequence (O35903 24-144 limits assumed): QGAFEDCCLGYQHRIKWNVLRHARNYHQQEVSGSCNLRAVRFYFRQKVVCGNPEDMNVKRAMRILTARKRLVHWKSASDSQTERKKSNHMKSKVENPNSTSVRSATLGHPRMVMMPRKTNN
mCXCL11 (mouse), sequence (Q9JHH5 22-100 limits assumed): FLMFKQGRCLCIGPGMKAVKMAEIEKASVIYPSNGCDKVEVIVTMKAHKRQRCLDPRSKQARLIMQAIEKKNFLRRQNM
mCCL21 (mouse), sequence (P84444 24-133): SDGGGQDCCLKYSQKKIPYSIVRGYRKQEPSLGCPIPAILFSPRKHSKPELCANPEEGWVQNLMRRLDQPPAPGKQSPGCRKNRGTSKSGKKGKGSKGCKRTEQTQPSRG
mCXCL13 (mouse), sequence (O55038 22-109 limits assumed): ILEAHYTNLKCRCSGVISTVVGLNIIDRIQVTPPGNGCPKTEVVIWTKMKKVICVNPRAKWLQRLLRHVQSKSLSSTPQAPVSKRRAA

Question: With Purified EV E12 protein as the substance, how does the Kd (mCCL27 (mouse)) read?
Answer: The Kd was 2 nM.

Question: And the Kd (mCXCL11 (mouse))?
Answer: The Kd was 1 nM.

Question: What about the Kd (mCCL21 (mouse)) of the same substance?
Answer: Its Kd is 0.5 nM.

Question: And the Kd (mCXCL13 (mouse))?
Answer: The Kd was 1.5 nM.

Question: And the Kd (mCCL25 (mouse))?
Answer: The Kd was 0.7 nM.

Question: And the Kd (mCXCL14 (mouse))?
Answer: Its Kd is 1.5 nM.
